{"source": "paper PMC4126800", "about": "(Nature, 2014)", "proteins": {"B1": {"name": "Human CD81 large extracellular loop (CD81 LEL, residues 112-202) (domain or fragment)", "chain": "GFVNKDQIAKDVKQFYDQALQQAVVDDDANNAKAVVKTFHETLDCCGSSTLTALTTSVLKNNLCPSGSNIISNLFKEDCHQKIDDLFSGKL"}}, "target": "the molecule itself", "experiment": "SAXS"}
{"protein": "B1", "values": [{"measurement": "stoichiometry N", "result": 2}]}
